According to PMC6947424, “New Targeted Gold Nanorods for the Treatment of Glioblastoma by Photodynamic Therapy” (Journal of Clinical Medicine, 2019):
One block for each molecule: values may come before it. No end group written: not given here. *: point of attachment. Pyropheophorbide(a) = C=Cc1c(C)c2cc3nc(c4c5[nH]c(cc6nc(cc1[nH]2)C(C)=C6CC)c(C)c5C(=O)C4)[C@@H](CCC(=O)*)[C@@H]3C; Hexanoyl(6-maleimido) = O=C1C=CC(=O)N1CCCCCC(=O)*

Experiments:
[1] = in EtOH; ref [73]; cited from earlier work
Procedure: (§1) Fluorescence quantum yields (Φf) were determined using a tetraphenyl porphyrin (TPP) solution as the fluorescence standard (Φf = 0.11 in toluene, taking into account solvent refractive index and absorption efficiencies. For the direct determination of ^1O2 quantum yield (ΦΔ), excitation was performed with a Xe-arc, the light was separated in a SPEX 1680, 0.22 µm double monochromator. Detection at 1270 nm was carried out through a PTI S/N 1565 monochromator and the emission was monitored by a liquid nitrogen cooled Ge-detector (EO-817L, North Coast Scientific Co, OH, USA). Rose Bengal (R ...

[2] = in toluene; ref [72]; cited from earlier work
Procedure: as §1, with “... || These findings are also consistent with the Φf value of Pyro reported by other authors (Φf = 0.3 and in methanol). […] This property can serve in the ...” for “...”

UV-vis absorption = type: physicochemical; settings: ethanol, Soret band
Procedure: (§2) The setup and the protocol to evaluate the photophysical characterizations including the absorption, fluorescence, and singlet oxygen emission spectra in addition to the fluorescence and singlet oxygen lifetimes have been previously described by our team. The absorption spectra were recorded on a UV-3600 UV–vis double beam spectrophotometer (Shimadzu, Marne La Vallée, France) in the wavelength range of 200-800 nm. The measurements were performed on the molecules dispersed in ethanol in quartz cuvettes with an optical path of 10 mm. The fluorescence spectra were recorded on a Horiba Jobin Yvon Fluorolog-3 (FL3-222) spectrofluorimeter equipped with a 450W xenon lamp, a thermostated cell compartment (25 °C), a R928 (Hamamatsu, Massy, France) UV–vis photomultiplier and a liquid nitrogen cooled InGaAs infrared detector (DSS-16A020L Electro-Optical System Inc., Phoenixville, PA, USA). The excitation spectrometer used is a SPEX double grating monochromator (1200 grooves per mm blazed at 330 nm). The fluorescence was measured using the UV–vis detector through a SPEX double grating monochromator (600 grooves per mm blazed at 500 nm). The singlet oxygen production was measured using the IR detector through a SPEX double grating monochromator (600 grooves per mm blazed at 1 μm).
The photophysical properties at the different synthetic stages of the hybrid AuNRs@PEG-MI-K(Pyro)DKPPR-OH, including the peptide derivatives as intermediates, were studied and compared to that of free Pyro. These properties include the UV-vis absorption, the florescence emission (quantum yield (Φf) and lifetime (τf)) and the ^1O2 production (quantum yield (ΦΔ) and lifetime (τΔ)). To determine these properties, the optical density (OD) of the Soret band of the Pyro component (412 nm) was adjusted at about 0.2. Controls, such as TPP dissolved in toluene, as a standard for fluorescence emission, and RB dissolved in ethanol, as a standard for ^1O2 production, were used. Ethanol was chosen to dissolve the studied molecules since it is a convenient solvent for the detection of fluorescence and ^1O2 emission. […]

[3] = Fluorescence emission (quantum yield and lifetime); type: physicochemical; settings: ethanol
Procedure: as §2
as §1, with “(RB) was chosen as a reference solution because of its high ^1O2 quantum yield in EtOH (ΦΔ = 0.68). The absorbance value at the excitation wavelengths (412 nm) of both the reference and the sample solutions were set to approximately 0.2 by dilution. The samples were all prepared in ethanol.” for “(R ...”
The quantum yield of fluorescence is determined by the equation (1):(1) Φf=Φf0×If/If0×[…]×(n/n0)^2 where Φf and Φf0, If and If0, DO and DO0, n and n0 are the quantum yields, intensities, optical densities and refraction indices of the sample and reference, respectively.
(§3) Fluorescence lifetimes were measured by Time-Correlated Single Photon Counting (TCSPC) using for excitation a pulsed laser diode LDH-P-C-405 coupled with a PDL 800-D driver (both from PicoQuant GmbH, Berlin, Germany) emitting at 408 nm (FWHM < 70 ps, 1 MHz) and an SPCM-AQR-15 avalanche photodiode (EG & G, Vaudreuil, Canada) coupled with a 650 nm (±10 nm) interference long-wave pass filter as the detection system. The acquisition system was a PicoHarp 300 module with a PHR-800 four-channel router (both from PicoQuant GmbH, Berlin, Germany). Fluorescence decays were recorded using the single photon counting method (four optical faced quartz cells for pure products in ethanol). Data were collected, and up to 1000 counts were accumulated in the maximum channel and analyzed using Fluofit TCSPC software (PicoQuant GmbH, Berlin, Germany) based on iterative reconvolution using a Levensberg-Marquandt algorithm. Singlet oxygen lifetime measurements have been performed on a TEMPRO-01 spectrophotometer (Horiba Jobin Yvon, Palaiseau, France). The apparatus was composed of a pulsed diode excitation source SpectraLED-415 emitting at 415 nm, a cuvette compartment, a Seya–Namioka type emission monochromator (600–2000 nm), and an H10330-45 near-infrared photomultiplier tube with a thermoelectric cooler (Hamamatsu, Massy, France) as the detection system. The system was monitored by a single photon counting controller FluoroHub-B and the software DataStation and DAS6 (Horiba Jobin Yvon, Palaiseau, France). […]

[4] = Singlet oxygen production (quantum yield and lifetime); type: physicochemical; settings: ethanol
Procedure: as §2
as §1, with “(RB) was chosen as a reference solution because of its high ^1O2 quantum yield in EtOH (ΦΔ = 0.68). The absorbance value at the excitation wavelengths (412 nm) of both the reference and the sample solutions were set to approximately 0.2 by dilution. The samples were all prepared in ethanol.” for “(R ...”
The quantum yield of singlet oxygen production is determined by the equation (2):(2) ΦΔ=ΦΔ0×I/I0×[…] where ΦΔ and ΦΔ0, I and I0, DO and DO0 are the luminescence quantum yields of singlet oxygen, the luminescence intensities and the optical densities of the sample and reference, respectively.
as §3

[5] = target: T1, recombinant NRP-1 protein (neuropilin-1) (UniProt O14786 22-856); assay: ELISA; competition; NRP-1 coated on 96 well plate at 2 μg/mL in PBS overnight at room temperature, blocked with PBS 0.5 % BSA; 5 ng/mL biotinylated VEGF-A165 in blocking buffer with 2 μg/mL heparin, with different peptide concentrations of competitor, 2 h at room temperature; streptavidin-HRP, OD 450 nm; settings: both partners purified
T1 construct: Neuropilin-1 (NRP-1), recombinant protein bought from Bio-Techne; Coated on the ELISA plate; also called neuropilin-1 receptor; NPR-1; source: bought: Bio-Techne
T1 sequence (looked up): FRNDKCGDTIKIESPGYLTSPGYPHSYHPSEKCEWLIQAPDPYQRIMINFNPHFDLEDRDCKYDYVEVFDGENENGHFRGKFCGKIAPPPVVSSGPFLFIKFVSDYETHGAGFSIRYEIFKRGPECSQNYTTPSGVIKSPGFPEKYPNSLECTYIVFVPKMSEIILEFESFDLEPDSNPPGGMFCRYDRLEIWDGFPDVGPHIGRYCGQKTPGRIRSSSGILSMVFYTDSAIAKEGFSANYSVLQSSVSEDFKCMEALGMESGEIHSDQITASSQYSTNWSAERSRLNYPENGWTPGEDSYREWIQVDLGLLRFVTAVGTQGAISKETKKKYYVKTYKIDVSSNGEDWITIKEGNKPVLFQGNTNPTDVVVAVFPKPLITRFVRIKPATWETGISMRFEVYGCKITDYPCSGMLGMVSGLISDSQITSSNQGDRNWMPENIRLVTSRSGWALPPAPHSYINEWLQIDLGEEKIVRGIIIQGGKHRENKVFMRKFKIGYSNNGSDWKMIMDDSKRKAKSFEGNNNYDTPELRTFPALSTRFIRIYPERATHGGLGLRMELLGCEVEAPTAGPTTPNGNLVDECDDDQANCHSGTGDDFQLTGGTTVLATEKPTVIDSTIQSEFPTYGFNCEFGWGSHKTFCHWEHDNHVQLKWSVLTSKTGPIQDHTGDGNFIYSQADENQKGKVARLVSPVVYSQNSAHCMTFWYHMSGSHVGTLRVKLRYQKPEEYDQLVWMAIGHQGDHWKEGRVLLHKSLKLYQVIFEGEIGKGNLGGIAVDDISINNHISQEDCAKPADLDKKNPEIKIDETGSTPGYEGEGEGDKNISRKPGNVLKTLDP

Molecule: O=C([O-])c1c(Cl)c(Cl)c(Cl)c(Cl)c1-c1c2cc(I)c(=O)c(I)c-2oc2c(I)c([O-])c(I)cc12.[Na+].[Na+] [Rose Bengal]
ΦΔ of singlet oxygen reference [1]: 0.68

Molecule: C1=Cc2nc1c(-c1ccccc1)c1nc(c(-c3ccccc3)c3ccc([nH]3)c(-c3ccccc3)c3ccc([nH]3)c2-c2ccccc2)C=C1 [TPP, tetraphenyl porphyrin]
Φf of fluorescence standard [2]: 0.11

Molecule: H-K(Pyro)DKPPR-OH [DKPPR peptide extended with Pyro-bearing lysine, free N-terminus]
λmax (UV-vis absorption): 412 nm
τf (fluorescence lifetime) ([3]; TCSPC, single exponential fit): 6.8 ns
Φf (fluorescence quantum yield) ([3]; excitation 412 nm, TPP in toluene as standard, 25 °C): 0.34
τΔ (singlet oxygen lifetime) [4]: 14 μs
ΦΔ (singlet oxygen quantum yield) ([4]; excitation 412 nm, detection 1270 nm, Rose Bengal as reference): 0.44

Second part, the molecule after the results:

IC50 [5]: 1500 nM
B1: MI-K(Pyro)DKPPR-OH (peptide)
peptide: {Hexanoyl(6-maleimido)}-K(Pyropheophorbide(a))DKPPR-OH
SMILES: C=Cc1c(C)c2cc3nc(c4c5[nH]c(cc6nc(cc1[nH]2)C(C)=C6CC)c(C)c5C(=O)C4)[C@@H](CCC(=O)NCCCC[C@H](NC(=O)CCCCCN1C(=O)C=CC1=O)C(=O)N[C@@H](CC(=O)O)C(=O)N[C@@H](CCCCN)C(=O)N1CCC[C@H]1C(=O)N1CCC[C@H]1C(=O)N[C@@H](CCCNC(=N)N)C(=O)O)[C@@H]3C
notes: KDKPPR peptide; first lysine bears Pyro on its side chain and MI on its alpha-amine; free C-terminal acid; also called PP-PS conjugate; peptide-photosensitizer conjugate; source: synthetic peptide (Fmoc/tBu solid phase, preparative HPLC)

IC50 [5]: 1100 nM
B2: AuNRs@PEG-MI-K(Pyro)DKPPR-OH (other)
peptide: K(Pyropheophorbide(a))DKPPR-OH
modifications: not fully specified (N-terminus); printed as AuNRs@PEG-MI-K(Pyro)DKPPR-OH; also: MI joined by thioether to AuNRs@PEG-SH
notes: KDKPPR peptide of m4, grafted through its N-terminal maleimide onto the surface of PEGylated gold nanorods; Many peptide copies on each nanorod (multivalent); 1 mg/mL of the nanorods holds 257.7 µM of peptide; also called hybrid AuNRs; functionalized AuNRs

IC50 [5]: 2000 nM
B3: H-KDKPPR-OH peptide (peptide)
peptide: H-KDKPPR-OH
notes: free peptide with free N-terminus (H-) and free C-terminal acid (-OH), developed by the authors' team to target NRP-1; also called free KDKPPR peptide; source: synthetic peptide
